# Assay results as given in article doi:10.1101/2022.05.24.493251.
# T1: Npl3 RRM1 (Saccharomyces cerevisiae, UniProt Q01560 114-201)
# T1 sequence: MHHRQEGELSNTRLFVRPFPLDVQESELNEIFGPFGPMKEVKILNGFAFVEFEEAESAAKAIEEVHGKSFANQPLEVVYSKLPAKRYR
# Molecular target: T1, Npl3 RRM1
# Test: NMR titration
row,Binder,binding result
1,TTTTTT (ssDNA) [polyT 6mer],no binding
2,AAAAAA (ssDNA) [polyA 6mer],no binding
3,CCCCCC (ssDNA) [polyC 6mer],binds
4,GGGGGG (ssDNA) [polyG 6mer],no binding
